Reference: patent publication US20200237800

Legend:
Experiment in all cases: pulldown
Settings in all cases: sense/antisense normalized AUC more than 2-fold
[1] = target: ACLY (ATP-citrate synthase) (Homo sapiens) (UniProt P53396)
[2] = target: FLG2 (Filaggrin-2) (Homo sapiens) (UniProt Q5D862)
[3] = target: T1, SFPQ (splicing factor, proline- and glutamine-rich) (Homo sapiens) (UniProt P23246)
T1 sequence: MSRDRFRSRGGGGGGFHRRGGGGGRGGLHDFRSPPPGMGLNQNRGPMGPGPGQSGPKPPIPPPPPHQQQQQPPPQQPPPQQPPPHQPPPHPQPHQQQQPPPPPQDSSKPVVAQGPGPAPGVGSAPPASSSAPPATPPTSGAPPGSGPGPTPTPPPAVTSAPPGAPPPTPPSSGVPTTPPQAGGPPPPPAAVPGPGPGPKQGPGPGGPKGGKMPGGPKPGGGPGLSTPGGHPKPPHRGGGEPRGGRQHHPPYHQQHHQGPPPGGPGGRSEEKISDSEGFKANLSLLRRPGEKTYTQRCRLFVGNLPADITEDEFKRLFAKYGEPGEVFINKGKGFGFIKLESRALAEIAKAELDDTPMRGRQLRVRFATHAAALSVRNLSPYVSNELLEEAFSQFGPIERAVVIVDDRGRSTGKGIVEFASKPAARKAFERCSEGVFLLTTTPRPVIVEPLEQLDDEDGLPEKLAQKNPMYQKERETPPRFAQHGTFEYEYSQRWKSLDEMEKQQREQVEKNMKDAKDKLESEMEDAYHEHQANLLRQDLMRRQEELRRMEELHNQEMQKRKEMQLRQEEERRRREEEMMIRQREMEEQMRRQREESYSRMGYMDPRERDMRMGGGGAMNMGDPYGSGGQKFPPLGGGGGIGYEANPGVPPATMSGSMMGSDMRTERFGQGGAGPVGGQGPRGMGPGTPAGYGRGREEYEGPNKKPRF

Measured: binding signal (fraction of sense)

ACLY (ATP-citrate synthase) (Homo sapiens), sequence (P53396 whole entry): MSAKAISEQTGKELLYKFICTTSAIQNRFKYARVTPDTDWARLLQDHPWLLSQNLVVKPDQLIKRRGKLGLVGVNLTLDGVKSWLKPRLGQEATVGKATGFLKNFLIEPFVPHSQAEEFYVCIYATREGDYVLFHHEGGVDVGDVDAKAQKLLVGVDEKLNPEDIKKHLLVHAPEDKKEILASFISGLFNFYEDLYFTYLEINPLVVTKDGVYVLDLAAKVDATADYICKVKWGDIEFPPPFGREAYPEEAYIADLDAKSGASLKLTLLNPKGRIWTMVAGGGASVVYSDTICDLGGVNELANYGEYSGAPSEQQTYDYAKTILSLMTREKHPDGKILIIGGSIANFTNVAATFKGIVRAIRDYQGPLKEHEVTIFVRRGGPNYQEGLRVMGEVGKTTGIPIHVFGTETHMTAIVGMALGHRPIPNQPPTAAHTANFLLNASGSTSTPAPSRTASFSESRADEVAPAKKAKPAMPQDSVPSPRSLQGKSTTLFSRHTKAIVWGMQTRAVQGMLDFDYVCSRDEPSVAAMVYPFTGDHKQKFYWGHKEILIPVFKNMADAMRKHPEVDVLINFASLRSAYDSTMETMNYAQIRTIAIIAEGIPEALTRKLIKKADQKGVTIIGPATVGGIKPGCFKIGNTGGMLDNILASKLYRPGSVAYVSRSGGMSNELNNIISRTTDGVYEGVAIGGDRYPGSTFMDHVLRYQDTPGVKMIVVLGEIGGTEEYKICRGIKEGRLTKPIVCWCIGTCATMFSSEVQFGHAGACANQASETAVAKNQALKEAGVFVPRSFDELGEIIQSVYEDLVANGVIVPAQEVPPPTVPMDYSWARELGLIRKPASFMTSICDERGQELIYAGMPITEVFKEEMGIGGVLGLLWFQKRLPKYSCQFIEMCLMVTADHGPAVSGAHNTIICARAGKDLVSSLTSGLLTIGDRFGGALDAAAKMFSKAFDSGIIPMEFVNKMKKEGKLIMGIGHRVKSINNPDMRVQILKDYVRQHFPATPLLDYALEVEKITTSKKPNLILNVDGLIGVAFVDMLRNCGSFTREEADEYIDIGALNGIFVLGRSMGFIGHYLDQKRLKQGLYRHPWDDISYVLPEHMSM
FLG2 (Filaggrin-2) (Homo sapiens), sequence (Q5D862 whole entry): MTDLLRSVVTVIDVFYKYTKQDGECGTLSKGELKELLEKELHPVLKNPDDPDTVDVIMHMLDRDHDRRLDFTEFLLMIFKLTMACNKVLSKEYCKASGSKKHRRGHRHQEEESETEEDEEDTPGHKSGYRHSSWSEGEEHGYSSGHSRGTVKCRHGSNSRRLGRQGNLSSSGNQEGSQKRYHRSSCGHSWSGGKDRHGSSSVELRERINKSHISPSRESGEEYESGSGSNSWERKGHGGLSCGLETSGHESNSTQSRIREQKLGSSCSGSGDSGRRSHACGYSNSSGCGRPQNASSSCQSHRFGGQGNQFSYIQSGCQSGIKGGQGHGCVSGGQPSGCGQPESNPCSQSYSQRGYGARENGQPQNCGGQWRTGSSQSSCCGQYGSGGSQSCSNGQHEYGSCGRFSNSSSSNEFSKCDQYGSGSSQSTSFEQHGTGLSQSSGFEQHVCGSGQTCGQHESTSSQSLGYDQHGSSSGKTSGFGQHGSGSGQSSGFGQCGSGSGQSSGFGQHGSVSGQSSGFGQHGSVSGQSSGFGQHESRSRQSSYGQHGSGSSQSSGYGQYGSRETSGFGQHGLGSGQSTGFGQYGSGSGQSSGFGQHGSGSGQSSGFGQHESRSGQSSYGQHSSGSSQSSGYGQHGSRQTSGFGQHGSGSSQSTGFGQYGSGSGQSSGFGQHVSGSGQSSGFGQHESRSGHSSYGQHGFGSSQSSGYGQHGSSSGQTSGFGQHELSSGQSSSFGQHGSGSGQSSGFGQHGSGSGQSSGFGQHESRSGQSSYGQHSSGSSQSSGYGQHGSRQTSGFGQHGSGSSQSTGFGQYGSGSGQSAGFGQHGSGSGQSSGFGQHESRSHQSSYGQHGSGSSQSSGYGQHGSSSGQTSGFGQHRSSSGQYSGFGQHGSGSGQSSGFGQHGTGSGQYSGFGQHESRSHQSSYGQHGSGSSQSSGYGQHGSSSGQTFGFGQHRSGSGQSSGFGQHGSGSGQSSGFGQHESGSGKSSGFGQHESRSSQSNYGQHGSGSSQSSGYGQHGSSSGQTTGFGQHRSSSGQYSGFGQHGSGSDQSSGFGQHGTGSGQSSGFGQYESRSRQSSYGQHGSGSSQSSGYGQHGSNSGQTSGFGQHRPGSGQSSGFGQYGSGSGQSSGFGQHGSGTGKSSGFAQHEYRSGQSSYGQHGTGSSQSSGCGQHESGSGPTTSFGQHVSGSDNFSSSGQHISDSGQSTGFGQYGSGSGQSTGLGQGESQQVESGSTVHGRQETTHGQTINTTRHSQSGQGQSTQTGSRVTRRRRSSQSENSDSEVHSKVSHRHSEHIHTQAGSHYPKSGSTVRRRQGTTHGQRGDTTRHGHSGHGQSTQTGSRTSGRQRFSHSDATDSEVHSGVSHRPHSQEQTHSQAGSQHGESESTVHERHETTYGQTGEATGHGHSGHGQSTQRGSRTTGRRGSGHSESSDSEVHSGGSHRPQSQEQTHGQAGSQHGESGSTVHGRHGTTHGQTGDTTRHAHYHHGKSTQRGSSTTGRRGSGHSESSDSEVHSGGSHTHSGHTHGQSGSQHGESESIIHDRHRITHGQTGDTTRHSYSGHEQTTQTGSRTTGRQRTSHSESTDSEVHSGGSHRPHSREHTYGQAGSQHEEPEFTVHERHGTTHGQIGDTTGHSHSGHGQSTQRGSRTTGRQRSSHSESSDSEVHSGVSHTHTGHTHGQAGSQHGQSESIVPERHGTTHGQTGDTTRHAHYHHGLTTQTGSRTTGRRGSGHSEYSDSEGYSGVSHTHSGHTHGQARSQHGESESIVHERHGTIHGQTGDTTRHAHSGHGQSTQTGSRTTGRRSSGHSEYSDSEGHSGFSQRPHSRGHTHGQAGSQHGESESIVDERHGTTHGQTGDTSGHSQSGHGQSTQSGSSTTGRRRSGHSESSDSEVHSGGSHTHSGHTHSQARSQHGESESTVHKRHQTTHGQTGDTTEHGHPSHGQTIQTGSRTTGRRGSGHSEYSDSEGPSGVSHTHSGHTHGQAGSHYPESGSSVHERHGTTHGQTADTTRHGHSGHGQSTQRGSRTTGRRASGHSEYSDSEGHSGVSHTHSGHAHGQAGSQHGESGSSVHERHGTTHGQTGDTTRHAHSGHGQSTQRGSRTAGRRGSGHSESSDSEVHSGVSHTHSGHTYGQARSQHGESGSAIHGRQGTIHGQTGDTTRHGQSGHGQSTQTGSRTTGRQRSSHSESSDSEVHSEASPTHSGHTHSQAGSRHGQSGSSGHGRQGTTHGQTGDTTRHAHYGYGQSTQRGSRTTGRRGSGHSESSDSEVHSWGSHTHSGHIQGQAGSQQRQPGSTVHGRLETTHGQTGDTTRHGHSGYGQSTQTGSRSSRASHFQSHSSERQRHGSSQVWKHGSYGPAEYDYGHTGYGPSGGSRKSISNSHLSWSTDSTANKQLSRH

lnc-FAM164A1 antisense RNA
< 0.5: [1] | [2] | [3]
